According to paper doi:10.1101/546648 (bioRxiv, 2019):

Biological target: the molecule itself
Assay: crystal structure

B1: Homo sapiens REXO2 (enzyme)
chain: MAAGESMAQRMVWVDLEMTGLDIEKDQIIEMACLITDSDLNILAEGPNLIIKQPDELLDSMSDWCKEHHGKSGLTKAVKESTITLQQAEYEFLSFVRQQTPPGLCPLAGNSVHEDKKFLDKYMPQFMKHLHYRIIDVSTVKELCRRWYPEEYEFAPKKAASHRALDDISESIKELQFYRNNIFKKKIDEKKRKIIENGENEKTVS
**Q.** Does B1 bind?
**A.** binds
